Among the data in PMC2360737 are fold of cyclin E co-precipitated with p21 against that with p27 and percent of CDK2/cyclin E complex bound values, retold here.

Experiment [1] deals with p21 (human (endogenous in A2780)) (UniProt P38936). The experiment in a line: co-IP; endogenous proteins in crude lysates of A2780 cells, untreated or treated with 0.6 uM DAP (up to 36 h; also after control or p21 siRNA); immunoprecipitated with anti-CDK4, anti-CDK2, anti-p21 or anti-p27 antibody, immunoblotted.
Chain of UniProt P38936 (P38936 whole entry): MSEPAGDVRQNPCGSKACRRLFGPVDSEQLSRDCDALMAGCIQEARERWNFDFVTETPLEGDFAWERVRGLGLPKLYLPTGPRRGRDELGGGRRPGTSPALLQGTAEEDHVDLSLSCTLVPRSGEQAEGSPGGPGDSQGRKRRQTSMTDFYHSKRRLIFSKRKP
The target in experiment [2] is p27 (human (endogenous in A2780)) (UniProt P46527). The experiment is described as above.
Chain of UniProt P46527 (P46527 whole entry): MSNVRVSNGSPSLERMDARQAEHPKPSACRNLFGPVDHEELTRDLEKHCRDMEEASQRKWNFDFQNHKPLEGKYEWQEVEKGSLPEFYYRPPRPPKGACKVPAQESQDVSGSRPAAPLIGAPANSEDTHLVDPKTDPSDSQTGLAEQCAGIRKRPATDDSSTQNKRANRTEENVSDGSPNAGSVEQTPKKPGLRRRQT

Chain of cyclin E (P24864 whole entry): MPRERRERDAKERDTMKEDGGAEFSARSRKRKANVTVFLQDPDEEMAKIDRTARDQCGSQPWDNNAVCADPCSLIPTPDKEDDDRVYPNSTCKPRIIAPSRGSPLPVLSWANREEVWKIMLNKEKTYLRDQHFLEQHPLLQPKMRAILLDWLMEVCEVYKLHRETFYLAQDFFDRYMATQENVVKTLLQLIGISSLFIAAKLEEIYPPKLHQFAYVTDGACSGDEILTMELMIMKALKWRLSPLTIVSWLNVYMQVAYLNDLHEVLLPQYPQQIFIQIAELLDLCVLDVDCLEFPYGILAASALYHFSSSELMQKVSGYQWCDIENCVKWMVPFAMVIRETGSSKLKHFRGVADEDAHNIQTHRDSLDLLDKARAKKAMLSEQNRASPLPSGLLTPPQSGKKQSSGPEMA

Regarding “cyclin E (from UniProt P24864 1-410) (natural protein)”, in experiment [1], the fold of cyclin E co-precipitated with p21 against that with p27 came to 3 fold and the percent of CDK2/cyclin E complex bound amounted to 75%. The percent of CDK2/cyclin E complex bound in experiment [2] was determined as 25%.
